{
  "source": "paper doi:10.1101/2020.07.24.212647",
  "about": "(bioRxiv, 2020)",
  "proteins": {"B1": {"name": "M. tuberculosis E2b catalytic domain (MtE2b_CD) (domain or fragment)", "chain": "PDVRPVHGVHARMAEKMTLSHKEIPTAKASVEVICAELLRLRDRFVSAAPEITPFALTLRLLVIALKHNVILNSTWVDSGEGPQVHVHRGVHLGFGAATERGLLVPVVTDAQDKNTRELASRVAELITGAREGTLTPAELRGSTFTVSNFGALGVDDGVPVINHPEAAILGLGAIKPRPVVVGGEVVARPTMTLTCVFDHRVVDGAQVAQFMCELRDLIESPETALLDL"}},
  "target": "the molecule itself",
  "assay": "crystal structure",
  "data": [
    {"protein": "B1", "values": [
      {"measurement": "stoichiometry N", "value": 24}
    ]}
  ]
}
